Tests used:
[1] = molecular target: TDP-43 1-260 (NTD-RRM1-RRM2) (human, UniProt Q13148 1-260); experiment: ALPHA
[2] = molecular target: TDP-43 102-269 (RRM1-RRM2) (human, UniProt Q13148 102-269); experiment: ALPHA
Sequence of TDP-43 102-269 (RRM1-RRM2) (Q13148 102-269): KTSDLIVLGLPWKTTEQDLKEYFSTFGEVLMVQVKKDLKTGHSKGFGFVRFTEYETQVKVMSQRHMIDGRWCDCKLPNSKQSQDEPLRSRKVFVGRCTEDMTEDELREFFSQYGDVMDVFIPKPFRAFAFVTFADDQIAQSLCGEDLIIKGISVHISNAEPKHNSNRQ

Sequence of TDP-43 1-260 (NTD-RRM1-RRM2) (Q13148 1-260): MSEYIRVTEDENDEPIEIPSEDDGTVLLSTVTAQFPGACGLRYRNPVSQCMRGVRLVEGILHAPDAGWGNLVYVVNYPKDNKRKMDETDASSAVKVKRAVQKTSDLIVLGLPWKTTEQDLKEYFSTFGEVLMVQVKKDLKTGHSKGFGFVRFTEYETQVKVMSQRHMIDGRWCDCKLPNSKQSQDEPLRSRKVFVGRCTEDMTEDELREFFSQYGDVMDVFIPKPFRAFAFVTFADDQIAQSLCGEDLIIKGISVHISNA

## UGUGUGUGUGUG (ssRNA) [(UG)6]
[1]
  Kd: 0.4 ± 0.04 nM
[2]
  Kd: 0.73 ± 0.1 nM
